Assay results: patent US20230035403A1, “Method For Determining Responsiveness To Prostate Cancer Treatment” (Janssen Biotech, Inc., priority 2020, published 2023)

These binders were tested against HLA-B*08:01 (human) (assay: UV-induced peptide exchange, HLA class I ELISA; Pos peptide = 100%). Conditions: remark: other sources report otherwise.

Binder	exchange rate with Pos peptide [%]
RAKCKFSIL (here or on the partner: biotinylated heavy chain) [P56 9-mer …]	38
QLIAMDSAI (here or on the partner: biotinylated heavy chain) [P22 9-mer …]	3.9
HVPKILSGK (here or on the partner: biotinylated heavy chain) [P58 9-mer …]	5.3
IPVLTRWPL (here or on the partner: biotinylated heavy chain) [P19 9-mer …]	14.5
CPMSRLRLA (here or on the partner: biotinylated heavy chain) [P46 9-mer …]	14.5

More lines, now with the values ahead:

exchange rate with Pos peptide [%]	Binder
2.7	LMAQRLLLR (here or on the partner: biotinylated heavy chain) [P97 9-mer …]
1.4	RVGNCKHLK (here or on the partner: biotinylated heavy chain) [P82 9-mer …]
2.4	IVWWCPMSR (here or on the partner: biotinylated heavy chain) [P98 9-mer …]
10.2	YLRRQKRLK (here or on the partner: biotinylated heavy chain) [P60 9-mer …]
2.6	LLERNSFEV (here or on the partner: biotinylated heavy chain) [P73 9-mer …]
3.6	CYLGRQKRF (here or on the partner: biotinylated heavy chain) [P61 9-mer …]
3.1	FLFLLLPLS (here or on the partner: biotinylated heavy chain) [P87 9-mer …]
